Laboratory results from patent publication US20260176319A1 (KALLYOPE, published 2026).
Starred links: 1 amine or outer side, 2 acyl side, 3 side chain; linkers in the order of their positions; H or OH if unused. Non-standard residues stand in square brackets, D forms with d. *: point of attachment. Trp(7-F) = N[C@@H](Cc1c[nH]c2c(F)cccc12)C(=O)O; Trp(7-Me) = Cc1cccc2c(C[C@H](N)C(=O)O)c[nH]c12; C18 diacid = O=C(O)CCCCCCCCCCCCCCCCC(=O)*; γGlu = O=C(O)[C@H](CCC(=O)[*:2])N[*:1]; 2Nal = N[C@@H](Cc1ccc2ccccc2c1)C(=O)O; Palmitoyl = CCCCCCCCCCCCCCCC(=O)*; Nle = CCCC[C@H](N)C(=O)O; AEEA = NCCOCCOCC(=O)O; Sar = CNCC(=O)O

Molecular target: human GRP receptor (human, UniProt P30550 1-384)
Test: cell-based or functional assay

human GRP receptor, sequence (P30550 whole entry): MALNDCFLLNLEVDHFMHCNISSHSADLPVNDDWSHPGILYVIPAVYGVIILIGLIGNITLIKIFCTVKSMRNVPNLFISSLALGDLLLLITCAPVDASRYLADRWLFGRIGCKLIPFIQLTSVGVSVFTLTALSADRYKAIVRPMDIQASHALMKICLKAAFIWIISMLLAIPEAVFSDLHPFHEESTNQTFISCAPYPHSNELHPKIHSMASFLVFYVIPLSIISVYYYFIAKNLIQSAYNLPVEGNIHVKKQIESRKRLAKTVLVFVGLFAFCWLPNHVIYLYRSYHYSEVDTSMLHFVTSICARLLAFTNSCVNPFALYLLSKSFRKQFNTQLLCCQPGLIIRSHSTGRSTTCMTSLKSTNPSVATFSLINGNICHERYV

Row | Binder | hIP1 GRPR EC50
1 | {C18 diacid}-[γGlu][AEEA][AEEA]GNHW[dA]V[dA]HL[Nle]-NH2 (SMILES CCCC[C@H](NC(=O)[C@H](CC(C)C)NC(=O)[C@H](Cc1c[nH]cn1)NC(=O)[C@@H](C)NC(=O)[C@@H](NC(=O)[C@@H](C)NC(=O)[C@H](Cc1c[nH]c2ccccc12)NC(=O)[C@H](Cc1c[nH]cn1)NC(=O)[C@H](CC(N)=O)NC(=O)CNC(=O)COCCOCCNC(=O)COCCOCCNC(=O)CC[C@H](NC(=O)CCCCCCCCCCCCCCCCC(=O)O)C(=O)O)C(C)C)C(N)=O) [Peptide 106] | 0.467 µM
2 | EXXGNHWAVGHLM (Palmitoyl-D-γGlu-OEG-OEG-Gly-Asn-His-Trp-Ala-Val-Gly-His-Leu-Met-NH2) [Peptide 8] | 0.0017 µM
3 | {C18 diacid}-[γGlu][AEEA][AEEA]GNH[Trp(7-Me)]AV[dA]HL[Nle][Sar]-NH2 (SMILES CCCC[C@H](NC(=O)[C@H](CC(C)C)NC(=O)[C@H](Cc1c[nH]cn1)NC(=O)[C@@H](C)NC(=O)[C@@H](NC(=O)[C@H](C)NC(=O)[C@H](Cc1c[nH]c2c(C)cccc12)NC(=O)[C@H](Cc1c[nH]cn1)NC(=O)[C@H](CC(N)=O)NC(=O)CNC(=O)COCCOCCNC(=O)COCCOCCNC(=O)CC[C@H](NC(=O)CCCCCCCCCCCCCCCCC(=O)O)C(=O)O)C(C)C)C(=O)N(C)CC(N)=O) [Peptide 104] | 0.221 µM
4 | {C18 diacid}-[γGlu][AEEA][AEEA][AEEA][AEEA]GNH[Trp(7-F)]AV[dA]HL[Nle][Sar]-NH2 (SMILES CCCC[C@H](NC(=O)[C@H](CC(C)C)NC(=O)[C@H](Cc1c[nH]cn1)NC(=O)[C@@H](C)NC(=O)[C@@H](NC(=O)[C@H](C)NC(=O)[C@H](Cc1c[nH]c2c(F)cccc12)NC(=O)[C@H](Cc1c[nH]cn1)NC(=O)[C@H](CC(N)=O)NC(=O)CNC(=O)COCCOCCNC(=O)COCCOCCNC(=O)COCCOCCNC(=O)COCCOCCNC(=O)CC[C@H](NC(=O)CCCCCCCCCCCCCCCCC(=O)O)C(=O)O)C(C)C)C(=O)N(C)CC(N)=O) [Peptide 101] | 0.352 µM
5 | {C18 diacid}-[γGlu][AEEA][AEEA]GNH[Trp(7-F)]AV[dA]HL[Nle][Sar]-NH2 (SMILES CCCC[C@H](NC(=O)[C@H](CC(C)C)NC(=O)[C@H](Cc1c[nH]cn1)NC(=O)[C@@H](C)NC(=O)[C@@H](NC(=O)[C@H](C)NC(=O)[C@H](Cc1c[nH]c2c(F)cccc12)NC(=O)[C@H](Cc1c[nH]cn1)NC(=O)[C@H](CC(N)=O)NC(=O)CNC(=O)COCCOCCNC(=O)COCCOCCNC(=O)CC[C@H](NC(=O)CCCCCCCCCCCCCCCCC(=O)O)C(=O)O)C(C)C)C(=O)N(C)CC(N)=O) [Peptide 102] | 0.181 µM
6 | {C18 diacid}-[γGlu][AEEA][AEEA][AEEA][AEEA]GNH[Trp(7-Me)]AV[dA]HL[Nle][Sar]-NH2 (SMILES CCCC[C@H](NC(=O)[C@H](CC(C)C)NC(=O)[C@H](Cc1c[nH]cn1)NC(=O)[C@@H](C)NC(=O)[C@@H](NC(=O)[C@H](C)NC(=O)[C@H](Cc1c[nH]c2c(C)cccc12)NC(=O)[C@H](Cc1c[nH]cn1)NC(=O)[C@H](CC(N)=O)NC(=O)CNC(=O)COCCOCCNC(=O)COCCOCCNC(=O)COCCOCCNC(=O)COCCOCCNC(=O)CC[C@H](NC(=O)CCCCCCCCCCCCCCCCC(=O)O)C(=O)O)C(C)C)C(=O)N(C)CC(N)=O) [Peptide 103] | 0.345 µM
7 | {C18 diacid}-[γGlu][AEEA][AEEA]GNH[2Nal]AV[dA]HL[Nle]-NH2 (SMILES CCCC[C@H](NC(=O)[C@H](CC(C)C)NC(=O)[C@H](Cc1c[nH]cn1)NC(=O)[C@@H](C)NC(=O)[C@@H](NC(=O)[C@H](C)NC(=O)[C@H](Cc1ccc2ccccc2c1)NC(=O)[C@H](Cc1c[nH]cn1)NC(=O)[C@H](CC(N)=O)NC(=O)CNC(=O)COCCOCCNC(=O)COCCOCCNC(=O)CC[C@H](NC(=O)CCCCCCCCCCCCCCCCC(=O)O)C(=O)O)C(C)C)C(N)=O) [Peptide 105] | 0.232 µM

Next, values leading:

Row | hIP1 GRPR EC50 | Binder
8 | > 10 µM | {C18 diacid}-[γGlu][AEEA][AEEA]GNHW[dA]V[dA]HL[Nle][Sar]-NH2 (SMILES CCCC[C@H](NC(=O)[C@H](CC(C)C)NC(=O)[C@H](Cc1c[nH]cn1)NC(=O)[C@@H](C)NC(=O)[C@@H](NC(=O)[C@@H](C)NC(=O)[C@H](Cc1c[nH]c2ccccc12)NC(=O)[C@H](Cc1c[nH]cn1)NC(=O)[C@H](CC(N)=O)NC(=O)CNC(=O)COCCOCCNC(=O)COCCOCCNC(=O)CC[C@H](NC(=O)CCCCCCCCCCCCCCCCC(=O)O)C(=O)O)C(C)C)C(=O)N(C)CC(N)=O) [Peptide 115]
9 | > 10 µM | {C18 diacid}-[γGlu][AEEA][AEEA]GNHHAV[dA]HL[Nle]-NH2 (SMILES CCCC[C@H](NC(=O)[C@H](CC(C)C)NC(=O)[C@H](Cc1c[nH]cn1)NC(=O)[C@@H](C)NC(=O)[C@@H](NC(=O)[C@H](C)NC(=O)[C@H](Cc1c[nH]cn1)NC(=O)[C@H](Cc1c[nH]cn1)NC(=O)[C@H](CC(N)=O)NC(=O)CNC(=O)COCCOCCNC(=O)COCCOCCNC(=O)CC[C@H](NC(=O)CCCCCCCCCCCCCCCCC(=O)O)C(=O)O)C(C)C)C(N)=O) [Peptide 107]
10 | > 10 µM | {C18 diacid}-[γGlu][AEEA][AEEA]GRHHAV[dA]HL[Nle]-NH2 (SMILES CCCC[C@H](NC(=O)[C@H](CC(C)C)NC(=O)[C@H](Cc1c[nH]cn1)NC(=O)[C@@H](C)NC(=O)[C@@H](NC(=O)[C@H](C)NC(=O)[C@H](Cc1c[nH]cn1)NC(=O)[C@H](Cc1c[nH]cn1)NC(=O)[C@H](CCCNC(=N)N)NC(=O)CNC(=O)COCCOCCNC(=O)COCCOCCNC(=O)CC[C@H](NC(=O)CCCCCCCCCCCCCCCCC(=O)O)C(=O)O)C(C)C)C(N)=O) [Peptide 116]
11 | 0.0187 µM | {C18 diacid}-[γGlu][AEEA][AEEA][AEEA][AEEA]GRH[Trp(7-F)]AV[dA]HL[Nle]-NH2 (SMILES CCCC[C@H](NC(=O)[C@H](CC(C)C)NC(=O)[C@H](Cc1c[nH]cn1)NC(=O)[C@@H](C)NC(=O)[C@@H](NC(=O)[C@H](C)NC(=O)[C@H](Cc1c[nH]c2c(F)cccc12)NC(=O)[C@H](Cc1c[nH]cn1)NC(=O)[C@H](CCCNC(=N)N)NC(=O)CNC(=O)COCCOCCNC(=O)COCCOCCNC(=O)COCCOCCNC(=O)COCCOCCNC(=O)CC[C@H](NC(=O)CCCCCCCCCCCCCCCCC(=O)O)C(=O)O)C(C)C)C(N)=O) [Peptide 109]
12 | > 10 µM | {C18 diacid}-[γGlu][AEEA][AEEA]GNHWAV[dA]HL[Nle]R-NH2 (SMILES CCCC[C@H](NC(=O)[C@H](CC(C)C)NC(=O)[C@H](Cc1c[nH]cn1)NC(=O)[C@@H](C)NC(=O)[C@@H](NC(=O)[C@H](C)NC(=O)[C@H](Cc1c[nH]c2ccccc12)NC(=O)[C@H](Cc1c[nH]cn1)NC(=O)[C@H](CC(N)=O)NC(=O)CNC(=O)COCCOCCNC(=O)COCCOCCNC(=O)CC[C@H](NC(=O)CCCCCCCCCCCCCCCCC(=O)O)C(=O)O)C(C)C)C(=O)N[C@@H](CCCNC(=N)N)C(N)=O) [Peptide 114]
13 | > 10 µM | {C18 diacid}-[γGlu][AEEA][AEEA]GNHRAV[dA]HL[Nle]-NH2 (SMILES CCCC[C@H](NC(=O)[C@H](CC(C)C)NC(=O)[C@H](Cc1c[nH]cn1)NC(=O)[C@@H](C)NC(=O)[C@@H](NC(=O)[C@H](C)NC(=O)[C@H](CCCNC(=N)N)NC(=O)[C@H](Cc1c[nH]cn1)NC(=O)[C@H](CC(N)=O)NC(=O)CNC(=O)COCCOCCNC(=O)COCCOCCNC(=O)CC[C@H](NC(=O)CCCCCCCCCCCCCCCCC(=O)O)C(=O)O)C(C)C)C(N)=O) [Peptide 108]
14 | > 10 µM | Palmitoyl-[γGlu][AEEA][AEEA]GNH[Trp(7-Me)]AV[dA]HL[Nle][Sar]-NH2 (SMILES CCCCCCCCCCCCCCCC(=O)N[C@@H](CCC(=O)NCCOCCOCC(=O)NCCOCCOCC(=O)NCC(=O)N[C@@H](CC(N)=O)C(=O)N[C@@H](Cc1c[nH]cn1)C(=O)N[C@@H](Cc1c[nH]c2c(C)cccc12)C(=O)N[C@@H](C)C(=O)N[C@H](C(=O)N[C@H](C)C(=O)N[C@@H](Cc1c[nH]cn1)C(=O)N[C@@H](CC(C)C)C(=O)N[C@@H](CCCC)C(=O)N(C)CC(N)=O)C(C)C)C(=O)O) [Peptide 112]
15 | 0.0165 µM | {C18 diacid}-[γGlu][AEEA][AEEA][AEEA][AEEA]GRH[Trp(7-Me)]AV[dA]HL[Nle]-NH2 (SMILES CCCC[C@H](NC(=O)[C@H](CC(C)C)NC(=O)[C@H](Cc1c[nH]cn1)NC(=O)[C@@H](C)NC(=O)[C@@H](NC(=O)[C@H](C)NC(=O)[C@H](Cc1c[nH]c2c(C)cccc12)NC(=O)[C@H](Cc1c[nH]cn1)NC(=O)[C@H](CCCNC(=N)N)NC(=O)CNC(=O)COCCOCCNC(=O)COCCOCCNC(=O)COCCOCCNC(=O)COCCOCCNC(=O)CC[C@H](NC(=O)CCCCCCCCCCCCCCCCC(=O)O)C(=O)O)C(C)C)C(N)=O) [Peptide 117]
16 | 0.0124 µM | {C18 diacid}-[γGlu][AEEA][AEEA][AEEA][AEEA]GNH[Trp(7-F)]AV[dA]HL[Nle]-NH2 (SMILES CCCC[C@H](NC(=O)[C@H](CC(C)C)NC(=O)[C@H](Cc1c[nH]cn1)NC(=O)[C@@H](C)NC(=O)[C@@H](NC(=O)[C@H](C)NC(=O)[C@H](Cc1c[nH]c2c(F)cccc12)NC(=O)[C@H](Cc1c[nH]cn1)NC(=O)[C@H](CC(N)=O)NC(=O)CNC(=O)COCCOCCNC(=O)COCCOCCNC(=O)COCCOCCNC(=O)COCCOCCNC(=O)CC[C@H](NC(=O)CCCCCCCCCCCCCCCCC(=O)O)C(=O)O)C(C)C)C(N)=O) [Peptide 110]
